Test results taken from patent publication US20230242577A1 (UBIPROTEIN, published 2023).

Target: T1, HA-ubiquitin (from pMT123-HA-ubiquitin) (UniProt P0CG47 1-76)
T1 construct: one ubiquitin unit is residues 1-76; not shown: HA tag of pMT123-HA-ubiquitin
Experiment: anti-myc IP, anti-HA blot, HEK 293T co-transfected with HA-ubiquitin (ubiquitination)

Row | binding result | Binder
1 | binds | pcDNA3-myc-interferon-β WT (ligand, also called IFN-β; human interferon-β; not shown: myc tag of the pcDNA3-myc vector) MSYNLLGFLQRSSNFQCQKLLWQLNGRLEYCLKDRMNFDIPEEIKQLQQFQKEDAALTIYEMLQNIFAIFRQDSSSTGWNETIVENLLANVYHQINHLKTVLEEKLEKEDFTRGKLMSSLHLKRYYGRILHYLKAKEYSHCAWTIVRVEILRNFYFINRLTGYLRN
2 | binds | pCMV3-C-myc-VEGFA WT (ligand, also called vascular endothelial growth factor A; human VEGFA; not shown: myc tag of the pCMV3-C-myc vector) APMAEGGGQNHHEVVKFMDVYQRSYCHPIETLVDIFQEYPDEIEYIFKPSCVPLMRCGGCCNDEGLECVPTEESNITMQIMRIKPHQGQHIGEMSFLQHNKCECRPKKDRARQEKKSVRGKGKGQKRKRKKSRPCGPCSERRKHLFVQDPQTCKCSCKNTDSRCKARQLELNERTCRCDKPRR
3 | binds | pCMV3-C-myc-prepro-GHRL WT (ligand, also called Ghrelin/obestatin preprohormone; appetite stimulating hormone precursor; not shown: myc tag of the pCMV3-C-myc vector) GSSFLSPEHQRVQQRKESKKPPAKLQPRALAGWLRPEDGGQAEGAEDEMEVRFNAPFDVGIKLSGVQYQQHSQALGKFLQDILWEEAKEAPADK
4 | binds | HAEGTFTSDVSSYLEGQAAKEFIAWLVKGRG (ligand, also called glucagon-like peptide-1; human GLP-1; not shown: myc tag of the pcDNA3-myc vector) [pcDNA3-myc-GLP-1 WT]
5 | binds | pcDNA3-myc-β-trophin WT (ligand, also called human β-trophin; not shown: myc tag of the pcDNA3-myc vector) APMGGPELAQHEELTLLFHGTLQLGQALNGVYRTTEGRLTKARNSLGLYGRTIELLGQEVSRGRDAAQELRASLLETQMEEDILQLQAEATAEVLGEVAQAQKVLRDSVQRLEVQLRSAWLGPAYREFEVLKAHADKQSHILWALTGHVQRQRREMVAQQHRLRQIQERLHTAALPA
6 | binds | pcDNA3-myc-G-CSF WT (ligand, also called human G-CSF; not shown: myc tag of the pcDNA3-myc vector) TPLGPASSLPQSFLLKCLEQVRKIQGDGAALQEKLVSECATYKLCHPEELVLLGHSLGIPWAPLSSCPSQALQLAGCLSQLHSGLFLYQGLLQALEGISPELGPTLDTLQLDVADFATTIWQQMEELGMAPALQPTQGAMPAFASAFQRRAGGVLVASHLQSFLEVSYRVLRHLAQP
